The record followed here is doi:10.1101/2025.09.05.674436 (bioRxiv, 2025).

For one data set, the target named is UBE2D3 WT (UniProt P61077 1-147). Description: ITC. On the technique in general: Isothermal titration calorimetry measures the heat released or taken up as one component is titrated into another.
The data set “native gel or EMSA” deals with the molecule itself. The data set can be described thus: native gel or EMSA.
Data set [1] concerns the molecule itself. The data set can be described thus: SDS-PAGE of LDS-resistant high molecular weight species.
Data set [2] deals with the molecule itself. The data set can be described thus: semi-denaturing detergent agarose gel electrophoresis.

Where a chain is given by its changes, count along the chain named. In names and notes the source's numbering stands.

Sequence of UBE2D3 WT (P61077 whole entry): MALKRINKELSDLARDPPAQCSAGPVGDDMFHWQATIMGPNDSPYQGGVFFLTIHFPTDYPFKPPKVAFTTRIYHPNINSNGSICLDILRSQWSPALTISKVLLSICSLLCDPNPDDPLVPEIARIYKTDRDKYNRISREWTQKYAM

B1: ZNFX1 Z-RING (residues 1533-1631), wild type (domain or fragment)
chain: RPPCYVPCTKLLVCGHPCIGLCGEPCPKKCRICHMDEVTQIFFGFEDEPDARFVQLEDCSHIFEVQALDRYMNEQKDDEVAIRLKVCPICQVPIRKNLR
Consider B1, for which, in the data set with UBE2D3 WT, the Kd – broadly, the constant that tells how readily two partners part at equilibrium – was found to be 41 µM and the dH was 2.04 kcal/mol.

B2: WT-ZNFX1 reconstituted in T-REx-293 ZNFX1 KO cells (enzyme)
chain: MEERRPHLDARPRNSHTNHRGPVDGELPPRARNQANNPPANALRGGASHPGRHPRANNHPAAYWQREERFRAMGRNPHQGRRNQEGHASDEARDQRHDQENDTRWRNGNQDCRNRRPPWSNDNFQQWRTPHQKPTEQPQQAKKLGYKFLESLLQKDPSEVVITLATSLGLKELLSHSSMKSNFLELICQVLRKACSSKMDRQSVLHVLGILKNSKFLKVCLPAYVVGMITEPIPDIRNQYPEHISNIISLLQDLVSVFPASSVQETSMLVSLLPTSLNALRASGVDIEEETEKNLEKVQTIIEHLQEKRREGTLRVDTYTLVQPEAEDHVESYRTMPIYPTYNEVHLDERPFLRPNIISGKYDSTAIYLDTHFRLLREDFVRPLREGILELLQSFEDQGLRKRKFDDIRIYFDTRIITPMCSSSGIVYKVQFDTKPLKFVRWQNSKRLLYGSLVCMSKDNFETFLFATVSNREQEDLCRGIVQLCFNEQSQQLLAEVQPSDSFLMVETTAYFEAYRHVLEGLQEVQEEDVPFQRNIVECNSHVKEPRYLLMGGRYDFTPLIENPSATGEFLRNVEGLRHPRINVLDPGQWPSKEALKLDDSQMEALQFALTRELAIIQGPPGTGKTYVGLKIVQALLTNESVWQISLQKFPILVVCYTNHALDQFLEGIYNCQKTSIVRVGGRSNSEILKQFTLRELRNKREFRRNLPMHLRRAYMSIMTQMKESEQELHEGAKTLECTMRGVLREQYLQKYISPQHWESLMNGPVQDSEWICFQHWKHSMMLEWLGLGVGSFTQSVSPAGPENTAQAEGDEEEEGEEESSLIEIAEEADLIQADRVIEEEEVVRPQRRKKEESGADQELAKMLLAMRLDHCGTGTAAGQEQATGEWQTQRNQKKKMKKRVKDELRKLNTMTAAEANEIEDVWQLDLSSRWQLYRLWLQLYQADTRRKILSYERQYRTSAERMAELRLQEDLHILKDAQVVGMTTTGAAKYRQILQKVEPRIVIVEEAAEVLEAHTIATLSKACQHLILIGDHQQLRPSANVYDLAKNFNLEVSLFERLVKVNIPFVRLNYQHRMCPEIARLLTPHIYQDLENHPSVLKYEKIKGVSSNLFFVEHNFPEQEIQEGKSHQNQHEAHFVVELCKYFLCQEYLPSQITILTTYTGQLFCLRKLMPAKTFAGVRVHVVDKYQGEENDIILLSLVRSNQEGKVGFLQISNRICVALSRAKKGMYCIGNMQMLAKVPLWSKIIHTLRENNQIGPMLRLCCQNHPETHTLVSKASDFQKVPEGGCSLPCEFRLGCGHVCTRACHPYDSSHKEFQCMKPCQKVICQEGHRCPLVCFQECQPCQVKVPKTIPRCGHEQMVPCSVPESDFCCQEPCSKSLRCGHRCSHPCGEDCVQLCSEMVTIKLKCGHSQPVKCGHVEGLLYGGLLVKCTTKCGTILDCGHPCPGSCHSCFEGRFHERCQQPCKRLLICSHKCQEPCIGECPPCQRTCQNRCVHSQCKKKCGELCSPCVEPCVWRCQHYQCTKLCSEPCNRPPCYVPCTKLLVCGHPCIGLCGEPCPKKCRICHMDEVTQIFFGFEDEPDARFVQLEDCSHIFEVQALDRYMNEQKDDEVAIRLKVCPICQVPIRKNLRYGTSIKQRLEEIEIIKEKIQGSAGEIATSQERLKALLERKSLLHQLLPEDFLMLKEKLAQKNLSVKDLGLVENYISFYDHLASLWDSLKKMHVLEEKRVRTRLEQVHEWLAKKRLSFTSQELSDLRSEIQRLTYLVNLLTRYKIAEKKVKDSIAVEVYSVQNILEKTCKFTQEDEQLVQEKMEALKATLPCSGLGISEEERVQIVSAIGYPRGHWFKCRNGHIYVIGDCGGAMERGTCPDCKEVIGGTNHTLERSNQLASEMDGAQHAAWSDTANNLMNFEEIQGMM
For the molecule B2, in the data set “native gel or EMSA”, the stoichiometry N (in general, a count of units in the complex or per binding partner) was found to be 2.

B3: ZNFX1FL F1210A/R1216A (FARA mutant) (enzyme)
chain: B2 chain with F1210A, R1216A
For the molecule B3, the binding result in data set [1] is reported as “binds”.

B4: full length ZNFX1 expressed in insect cells (ZNFX1FL) (enzyme)
chain: B2 chain
Take B4: the binding result in data set [2] is “binds”.
